Test results: PMC10322149 (2023)
Positions count from the first letter of the chain named. Numbers in names are those of the source.

B1: Homer1-R3E (natural protein)
chain: MGEQPIFSTRAHVFQIDPNTKKNWVPTSKHAVTVSYFYDSTENVYEIISLDGSKAIINSTITPNMTFTKTSQKFGQWADSEANTVYGLGFSSEHHLSKFAEKFQEFKEAARLAKEKSQEKMELTSTPSQESAGGDLQSPLTPESINGTDDERTPDVTQNSEPRAEPAQNALPFSHSAGDRTQGLSHASSAISKHWEAELATLKGNNAKLTAALLESTANVKQWKQQLAAYQEEAERLHKRVTELECVSSQANAVHSHKTELSQTVQELEETLKVKEEEIERLKQEIDNARELQEQRDSLTQKLQEVEIRNKDLEGQLSELEQRLEKSQSEQDAFRSNLKTLLEILDGKIFELTELRDNLAKLLECS
B2: Homer1-WT (full-length Homer1) (natural protein)
chain: B1 chain with E42R, E46R, E81R

Biological target: Shank3 (UniProt Q4ACU6 1-1730)
Sequence (Q4ACU6 whole entry): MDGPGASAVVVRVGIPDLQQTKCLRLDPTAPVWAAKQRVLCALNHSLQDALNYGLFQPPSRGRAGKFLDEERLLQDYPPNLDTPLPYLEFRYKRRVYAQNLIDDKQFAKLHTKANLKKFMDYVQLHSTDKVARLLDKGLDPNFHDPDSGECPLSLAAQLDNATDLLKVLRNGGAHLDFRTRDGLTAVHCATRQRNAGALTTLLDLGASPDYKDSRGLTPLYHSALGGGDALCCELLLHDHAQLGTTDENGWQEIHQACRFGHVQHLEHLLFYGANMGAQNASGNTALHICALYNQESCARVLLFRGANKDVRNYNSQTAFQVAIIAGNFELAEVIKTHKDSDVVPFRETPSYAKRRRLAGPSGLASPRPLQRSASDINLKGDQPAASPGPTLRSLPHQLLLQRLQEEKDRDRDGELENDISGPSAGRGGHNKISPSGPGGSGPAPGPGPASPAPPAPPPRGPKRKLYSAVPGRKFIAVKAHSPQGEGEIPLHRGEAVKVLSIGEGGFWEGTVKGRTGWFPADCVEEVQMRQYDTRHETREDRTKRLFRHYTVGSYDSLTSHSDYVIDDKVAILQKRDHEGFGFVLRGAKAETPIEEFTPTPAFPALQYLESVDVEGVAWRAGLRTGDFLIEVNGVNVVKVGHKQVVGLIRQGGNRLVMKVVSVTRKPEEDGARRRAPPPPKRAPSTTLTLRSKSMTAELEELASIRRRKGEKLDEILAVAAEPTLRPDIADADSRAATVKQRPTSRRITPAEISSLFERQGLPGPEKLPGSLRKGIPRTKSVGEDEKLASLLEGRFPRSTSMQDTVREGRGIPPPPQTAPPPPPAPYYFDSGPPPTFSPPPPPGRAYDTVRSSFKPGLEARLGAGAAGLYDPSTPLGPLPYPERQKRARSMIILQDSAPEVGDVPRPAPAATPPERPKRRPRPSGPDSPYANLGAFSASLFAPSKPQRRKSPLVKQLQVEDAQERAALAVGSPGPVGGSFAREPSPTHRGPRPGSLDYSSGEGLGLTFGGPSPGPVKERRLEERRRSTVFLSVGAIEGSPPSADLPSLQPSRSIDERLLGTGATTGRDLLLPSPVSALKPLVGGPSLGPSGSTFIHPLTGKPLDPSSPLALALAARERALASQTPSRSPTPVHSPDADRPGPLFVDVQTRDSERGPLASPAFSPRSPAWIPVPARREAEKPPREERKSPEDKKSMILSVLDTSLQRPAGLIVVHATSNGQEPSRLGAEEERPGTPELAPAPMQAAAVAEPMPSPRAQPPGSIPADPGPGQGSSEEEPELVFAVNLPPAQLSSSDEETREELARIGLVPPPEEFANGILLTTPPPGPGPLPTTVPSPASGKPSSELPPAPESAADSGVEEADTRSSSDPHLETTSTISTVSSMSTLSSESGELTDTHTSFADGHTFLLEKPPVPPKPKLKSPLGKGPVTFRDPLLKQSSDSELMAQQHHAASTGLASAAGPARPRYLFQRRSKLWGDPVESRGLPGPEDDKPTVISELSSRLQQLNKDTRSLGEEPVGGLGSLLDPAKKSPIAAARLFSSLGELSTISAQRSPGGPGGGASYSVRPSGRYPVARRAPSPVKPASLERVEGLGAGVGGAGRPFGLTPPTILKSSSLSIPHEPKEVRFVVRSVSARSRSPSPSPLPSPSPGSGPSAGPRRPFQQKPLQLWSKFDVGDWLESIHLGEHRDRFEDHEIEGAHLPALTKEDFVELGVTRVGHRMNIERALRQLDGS
Test: ITC

Row | Binder | Kd
1 | B1 | 2400 nM
2 | B2 | 1000 nM
